Tested on: MS2 coat protein
Assay: apparent KD of MS2 coat protein; designed switch direction (-1 OFF switch, 1 ON switch): 1; higher = weaker reporter binding
Procedure, shortened: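 The buffer was Tris-HCl pH 7.5 with KCl, MgCl2, BSA, DTT, tRNA and Tween-20. In it, SNAP-549-labelled MS2 coat protein was titrated in doubling steps from 0.7 or 1.5 nM to 3 µM over chip-bound RNA switches transcribed by stalled E. coli RNA polymerase on Illumina chips. Apparent KD is the per-design median over clusters of curve fits to normalised fluorescence.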

[1] = Eterna round: R95, input ligand: FMN 200 uM
[2] = Eterna round: R95, input ligand: microRNA oligo, concentration not stated
[3] = Eterna round: R95, input ligand: none
[4] = input ligand: microRNA oligo, concentration not stated

Sequence	apparent KD of MS2 coat protein [1] [nM]	apparent KD of MS2 coat protein [2] [nM]	apparent KD of MS2 coat protein [3] [nM]	apparent KD of MS2 coat protein (input ligand: FMN 200 uM) [nM]	apparent KD of MS2 coat protein [4] [nM]	apparent KD of MS2 coat protein (input ligand: none) [nM]
UGCCAUUGUAUAUUGGUGCAAGCUUUUUGACAUGAGGAUCACCCAUGUACUCGUCUUAUGUGCAGUCCGUAGACUGC [JL-shm-2.23 Brourd mod] (puzzle: Sensor for hsa-mir-208a)	24	13.5	22.8			
AGCCUGAGUCGAGGAUAUUAUGGAUCCUCUAAUACAUGAGGAUCACCCAUGUAAUUAAUUAUACAUGAGAAGGCGACUCAGGCA [SSNG2/12-A3] (Eterna round: R96, puzzle: Same State NG 2)				98.7	69.4	25.5
AGCUAGUACCGAGGAUAUACGUACAUGAGGAUCACCCAUGUAUACAUGAUUAAAUGAGACUACAUGUAGAAGGCGGUACUAGCA [Mat - Same State NG 2 - JL mod - D48] (Eterna round: R96, puzzle: Same State NG 2)				15	27.1	48.1
GGACGUCAAUCUCCUAAUUAAACAUGAGGAUCACCCAUGUCACAGGAUAUGAGUCCGAUUAGGACUCAGAAGGGUGAGACGUCC [Fiskers NG3ss - 49] (Eterna round: R96, puzzle: Same State NG 3)				22.1	17.2	25.8
GCUGCAAUAAACGCCUACAUGAGGAUCACCCAUGUAUGUAGGCAGGAUAUCGUAUGCAAAGCAUACGAGAAGGGCCGUAGUAGC [Mat - Same State NG 3 - JL Mod - D36] (Eterna round: R96, puzzle: Same State NG 3)				26.4	44.4	56.6
GUAUAACAUGAGGAUCACCCAUGUCAACAAAGUCGAGGAUAUGGGCAGAGAGGAGAAGAACCAGAAGGCGAAUAUG [Mat - Same State 1 - Mod of UCT - D37] (puzzle: Same State 1)	77.8	59.2	122			
UUUUUGAUCCGAGGAUAUCCUUUUUUCUUACAUGAGGAUCACCCAUGUAAAGGGAUUGAGUUGUAGGAGAAGGCGGUUUUUGUU [JR_SSNG2_Sub059] (Eterna round: R96, puzzle: Same State NG 2)				19.8	28.3	35
AGUCCAGCCUGAGCUGGACAAAAGCAUGUACAUGAGGAUCACCCAUGUCAUGUACAAGCUUUUUGCUCAAAAUAAUA [Mat - hsa-mir-208a - Mod of JL - D33] (puzzle: Sensor for hsa-mir-208a)	957	14.8	607			
AGAUCAUGACGAGGAUAUGCCACAUGAGGAUCACCCAUGUAUGUGGUAGGACGCGUACGUCCAAAGCAGAAGGCGUCGUGGUCA [JL SSNG2 1.01] (Eterna round: R96, puzzle: Same State NG 2)				17.2	28.5	55.5
UGGAUCUAGGCUUGCCUGGGUCCAUGUUGACAUGAGGAUCACCCAUGUGUUUUUUUUUUGCUUUUUGUUUGUCAACA [JL A Humble Attempt mod 3] (puzzle: Sensor for hsa-mir-208a)	19.1	12.3	21.7			
GCCGCGUUUCGCGCCUACAUGAGGAUCACCCAUGUUUGUAGGCAGGAUAUCGUUUGCUUUGCGGGCGAGAAGGGCUGUUGUGGC [salish99_SSNG3_R04_017] (Eterna round: R96, puzzle: Same State NG 3)				35	28.9	38.8
AAAAAACAUGAGGAUCACCCAUGUCAAAAGACGUGAGGAUAUGUACAGACUUCGGUCUGUACAGAAGGCACGAAAA [SS1 - 1037] (Eterna round: R96, puzzle: Same State 1)				17.6	19.1	26.9
AGUAGUGUAACAUGAGGAUCACCCAUGUAAGAAGAUGUAACCUAGGAUAUGGAUGUUAUGUUUGACCAGAAGGAGGAUUGUUUA [JR_SSNG3_Sub040] (Eterna round: R96, puzzle: Same State NG 3)				22.6	32.1	37.1
AGGCUGAGUCGAGGAUAUUAUGGAUCCUCUAAUACAUGAGGAUCACCCAUGUAAUUAAUUAUACAUGAGAAGGCGACUCAGCCU [SSNG2/12-A4] (Eterna round: R96, puzzle: Same State NG 2)				533	15	34.7
UACAAUCUAUCUGAGGAUAUCAUGAAAAAAACAUGAGGAUCACCCAUGUGCAGGAAAACUGCAUAUGAGAAGGCAGAUAGAUUGA [salish99_SS2_r3_005] (Eterna round: R96, puzzle: Same State 2)					517	
GGUCCAGCCUGAGCUGGACAAAAGCAUGUACAUGAGGAUCACCCAUGUCGUGUACAAGCUUUUUGCUCGUCUUAAAA [JL mod - D87 - 5] (puzzle: Sensor for hsa-mir-208a)	215	13.9	296			

Sequence	apparent KD of MS2 coat protein [1] [nM]	apparent KD of MS2 coat protein [2] [nM]	apparent KD of MS2 coat protein [3] [nM]	apparent KD of MS2 coat protein (input ligand: FMN 200 uM) [nM]	apparent KD of MS2 coat protein [4] [nM]	apparent KD of MS2 coat protein (input ligand: none) [nM]
CUGAGCAAUCAAGGAUAUCACGUCGAUUAGACGUGAGAAGGUGAUCAUAACAUGAGGAUCACCCAUGUAUUACAUGAAGCUCAG [SSNG1/1-A2] (Eterna round: R96, puzzle: Same State NG 1)				975	692	740
CACAAUCUAUCUGAGGAUAUCAUGAAAAAAACAUGAGGAUCACCCAUGUGCAGGAAAACUGCAUAUGAGAAGGCAGAUAGAUUGG [salish99_SS2_r3_014] (Eterna round: R96, puzzle: Same State 2)					504	
GCGGAACAUGAGGAUCACCCAUGUGGAGGGUGUAAAGGAUAUUAUAGAGAGAAGGUAGGGUAAGAAGGUUGCUGGG [JR_SS1_Sub090] (puzzle: Same State 1)	624	320	592			
GGAGCCGGCACCGAGGAUAUUCAUAUUAAAACAUGAGGAUCACCCAUGUAGGUCGAAAGACCUUGGGAGAAGGCGGAUCGGCUCG [Xeonanis - 30] (puzzle: Same State 2)	38.3	518	803			
UGACACACGGCAGGAUAUCCUUAGCAAAGCUAAGGAGAAGGGCCUCAUGUCGUGGAAACGUGACAUGAGGAUCACCCAUGUCGC [Omei SS(NG)1 Cv8] (Eterna round: R96, puzzle: Same State NG 1)				58.7	5.65	34.1
ACAUGAGAGUGAGGAUAUACUGUACCUACAUGUGACAUGAGGAUCACCCAUGUGGUAAGUAUGACGUAGAAGGCACAGAUAUGU [Equivalance 79 - Jieux - Same State NG 2] (Eterna round: R96, puzzle: Same State NG 2)				33.1	118	182
CGGGUACAUGAGGAUCACCCAUGUGGGAGGGAUGCAGGAUAUGUGGGAAAAGGGUAUGAAACAGAAGGGCAAGGAG [JR_SS!_Sub013] (puzzle: Same State 1)	29.6	33.2	35.1			
GGUGCACGGUGACGUGCACGGUAGUGCGUACAUGAGGAUCACCCAUGUCAUGUAGGAGUUACUUGUUCGUCUUGAAC [SENSOR #2] (puzzle: Sensor for hsa-mir-208a)	28.7	22.8	25.4			
UGUUGUAUUACAGGAUAUCUAGUAUUUUUAUUCAGAGAAGGGUAUUCACAUGAGGAUCACCCAUGUAUAUACGAGGAAGUUGUG [JMF's solution 56] (Eterna round: R96, puzzle: Same State NG 1)					34.1	
CGGGUACAUGAGGAUCACCCAUGUUGGAGUAAUGCAGGAUAUGUGAGACGAGAUGAUAAAACAGAAGGGCAAGGAG [JR_SS!_Sub010] (puzzle: Same State 1)	50.2	70.5	123			
CUCAAACAUGAGGAUCACCCAUGUUUUUUCAUGGGAGGAUAUCUAAGUUCAUUAUAUUCAGGAGAAGGCCUAUGUC [× ×•×ª×• ×ž×“×™× ×” × ×—×ª-07] (puzzle: Same State 1)	159	729	261			
GCUACCAAUAAAGCCAACAUGAGGAUCACCCAUGUAUGUUGGUAGGAUAUCGUUUGCAAAGCAAACGAGAAGGGCUAAGGUAGC [Mat - Same State NG 3 - JL Mod - D76] (Eterna round: R96, puzzle: Same State NG 3)				39.1	28.2	43.9
UAGUACAAGCUUUUUGCUUGUCUUAUUUAACAUGAGGAUCACCCAUGUAAGUUGAAAGUUAGAGAGUGCACCUUCAA [JR_SHM208A_Sub052] (puzzle: Sensor for hsa-mir-208a)	18.7	18.9	17.1			
GGUACCAUCACAGGAUAUGCUAUCCUUUGGGUAGCAGAAGGGUGAAACAUGAGGAUCACCCAUGUGGUGCCAGGGCGUGAGCCC [JL SSNG1 1.92] (Eterna round: R96, puzzle: Same State NG 1)				31.2	398	689
GGUCCGGCCUGAGCUGGACCGGAGCAUGUACAUGAGGAUCACCCAUGUCAUGUACAGGCUUCUUGCUCGUCUUGUUG [JL-shm-2.16 JL Mod] (puzzle: Sensor for hsa-mir-208a)	314	15	421			
